Positions count from the first letter of the chain named.

This note sets out measurements from patent publication US20200277377A1 (WUXI BIOLOGICS SHANGHAI, published 2020).

Test [1] concerns the target T1, cynomolgus monkey CTLA-4 ECD-6×His (cynomolgus monkey).
T1 construct: extracellular domain; Bought; also called cynomoguls monkey CTLA-4.ECD-6×His
Put plainly: SPR, antibody captured on anti-human Fc, CTLA-4.ECD-6×His as analyte, 1:1 fit. As to the method:
(§1) Biacore T200, Series S Sensor Chip CMS, Amine Coupling Kit, and 10×HBS-EP were purchased from GE Healthcare. […] In immobilization step, the activation buffer was prepared by mixing 400 mM EDC and 100 mM NHS immediately prior to injection. The CM5 sensor chip was activated for 420 s with the activation buffer. 30 μg/mL of goat anti-human IgG Fcγ antibody in 10 mM NaAc (pH 4.5) was then injected to Fc1-Fc4 channels for 200 s at a flow rate of 5 μL/min. The chip was deactivated by 1 M ethanolamine-HCl (GE). Then the antibodies were captured on the chip. Briefly, 4 μg/mL antibodies in running buffer (HBS-EP+) was injected individually to Fc3 channel for 30 s at a flow rate of 10 μL/min. […] Regeneration buffer (10 mM Glycine pH 1.5) was injected at 10 μL/min for 30 s following every dissociation phase.
(§2) The binding kinetics of these antibodies were measured using SPR. The antibodies were captured on immobilized anti-human Fc and CTLA-4-ECD at different concentration was injected orderly. The sensorgrams for reference channel and buffer channel were subtracted from the test sensorgrams. The data was used for 1:1 binding analysis on human, monkey and mouse CTLA-4.ECD-6×His.
On the technique in general: Surface plasmon resonance follows binding to a sensor surface in real time, without labels.

The target in test [2] is T2, Murine CTLA-4.ECD-6×His (mouse, UniProt P09793 36-161).
T2 construct: extracellular domain; Bought; also called mouse CTLA-4.ECD-6×His; mouse CTLA-4 ECD
The test is described as above. How it is done:
as §1, §2

The target of test [3] is T3, human CTLA-4.ECD-6×His (human, UniProt P16410 36-161).
T3 construct: extracellular domain; also called WBP316.hCTLA-4.ECD-6×His; hCTLA4-His (WT)
T3 sequence: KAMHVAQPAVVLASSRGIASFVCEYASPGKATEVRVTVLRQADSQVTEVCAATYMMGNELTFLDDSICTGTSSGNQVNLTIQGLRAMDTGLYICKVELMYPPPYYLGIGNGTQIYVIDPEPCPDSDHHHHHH
The description is as above. How it is done:
as §1, §2

Test [4] deals with T4, human CTLA-4 (Example 3 ELISAs, construct not stated) (human, UniProt P16410 36-161).
T4 sequence (looked up): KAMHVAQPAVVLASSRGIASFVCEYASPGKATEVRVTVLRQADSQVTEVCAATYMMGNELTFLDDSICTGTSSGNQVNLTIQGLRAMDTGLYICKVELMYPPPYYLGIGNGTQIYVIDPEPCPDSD
Description: competition ELISA: coated human CTLA-4, antibody mixed with biotinylated CD80, bound ligand detected with streptavidin-HRP [A) CD80]. How it is done:
(§3) Both ELISA and FACS were used as the competition assays. In ELISA based competition assay, human CTLA-4 was coated on the plates, and the antibodies mixed with biotinylated ligands were added into the plate. The bound ligands were detected by HRP conjugated streptavidin.

Test [5] concerns the target T5, full length human CTLA-4 on cells (human, UniProt P16410 36-223).
T5 construct: whole, on cells; also called CTLA-4-expressing cell line
T5 sequence (looked up): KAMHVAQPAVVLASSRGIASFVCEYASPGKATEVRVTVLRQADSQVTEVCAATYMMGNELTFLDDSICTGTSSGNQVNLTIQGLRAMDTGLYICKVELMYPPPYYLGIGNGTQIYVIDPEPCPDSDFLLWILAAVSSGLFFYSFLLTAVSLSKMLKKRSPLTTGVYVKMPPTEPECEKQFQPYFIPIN
Put plainly: FACS on CTLA-4-expressing cell line.

Test [6] concerns the target T6, murine CTLA-4 (Example 3 ELISA, construct not stated) (mouse, UniProt P09793 36-161, limits assumed).
T6 construct: also called mouse CTLA-4
Description: ELISA; ELISA, murine CTLA-4. As to the method:
(§4) The antibodies were tested on CTLA-4-binding ELISA.
(§5) ELISA was used to test binding of anti-human CTLA-4 antibodies to human, murine and cynomolgus monkey CTLA-4 protein. A 96-well plate was coated with human CTLA-4.ECD-6×His (1.0 μg/mL), cynomoguls monkey CTLA-4.ECD-6×His (0.5 μg/mL) or mouse CTLA-4.ECD-6×His (0.5 μg/mL) at 4° C. for 16-20 hours. After 1 hour blocking with 2% BSA in DBPS, testing antibodies, as well as positive and negative control antibodies were added to the plates and incubated at room temperature for 1 hour. The binding of the antibodies to the plates were detected by HRP-conjugated goat anti-human IgG antibody (1:5000 dilution) with 1 hour incubation. The color was developed by dispensing 100 μL of TMB substrate for 8 mins, and then stopped by 100 μL of 2N HCl.
For orientation: ELISA stands for enzyme-linked immunosorbent assay.

Test [7] deals with T3, human CTLA-4.ECD-6×His. Put plainly: SPR, antibody captured on anti-human Fc, CTLA-4 ECD as analyte, 1:1 fit. How it is done:
The binding kinetics of four antibodies were measured using SPR. The antibodies were captured on immobilized goat anti-human Fc, and then human CTLA-4 ECD at different concentration was injected orderly. The sensorgrams for reference channel and buffer channel were subtracted from the test sensorgrams. The data was used to fit in 1:1 binding analysis.
as §1

In test [8] the target is T4, human CTLA-4 (Example 3 ELISAs, …). Description: competition ELISA: coated human CTLA-4, antibody mixed with biotinylated CD86, bound ligand detected with streptavidin-HRP [B) CD86]. How it is done: as §3
Plates were coated with human CTLA-4.ECD.hFc (0.5 μg/mL) at 4° C. for 16-20 hours. […] After washing three times with PBS containing 0.05% Tween 20, biotinylated anti-His tag antibody was 1:2000 diluted and added. The plates were incubated at room temperature for 1 hour. The bound ligands were detected by HRP conjugated streptavidin (1:20000).

Test [9] deals with T7, biotinylated human CTLA-4 (Example 3 FACS competition) (human, UniProt P16410 36-161, limits assumed, biotinylated (sites not given)).
T7 sequence (looked up): T4 sequence (looked up)
Put plainly: competition FACS: antibody mixed with biotinylated human CTLA-4, added to CD86-expressing cells (panel title W316-CHO-K1.hPro1.L2), bound CTLA-4 detected with streptavidin-PE [B]. As to the method: as §3
Then the mixtures of antibody and CTLA-4 were added to the cells and incubated for 1 hour at 4° C. The cells were washed two times with 200 μL FACS buffer (DPBS containing 1% BSA). Streptavidin PE 1 to 333 diluted in FACS buffer was added to the cells and incubated at 4° C. for 1 hour.

Test [10] has as its target T4, human CTLA-4 (Example 3 ELISAs, …). Put plainly: ELISA, antibody titrated on human CTLA-4, OD450. How it is done: as §4, §5
Test [11] addresses T8, monkey CTLA-4 (Example 3 ELISA, construct not stated) (cynomolgus monkey, UniProt G7PL88 36-161).
T8 construct: also called cyno CTLA-4
T8 sequence: T4 sequence (looked up) with S14N, I18T, L106M
Put plainly: ELISA, antibody titrated on cyno CTLA-4, OD450. As to the method:
as §4, §5

B1: W3162-1.146.19 xAb.IgG1 (antibody, V domains shown)
VH: EVQLQESGPGLVKPSQSLSLTCSVTYHTITSGYDWTWIRKFPGNQMEWMGYISYSGNTNYNPSLKSRISITRDTSKNQFFLHLNSVTSEDTATYYCASMMVPHYYVMDAWGQGASVTVSS
VL: DVVLTQTPPTSSATIGQSVSISCRSSQSLLNSDGNTYLYWYLQRPSQSPQLLIYLVSKLGSGVPNRFSGSGSGTDFTLKISGVEAEDLGLYYCVQGTHDPWTFGGGTKLELK
notes: Chimeric: rat variable regions fused with constant region of human antibody (label xAb.IgG1)
The Kd is the free concentration of one partner at which half of the binding sites on the other are occupied at equilibrium, for simple one-to-one binding. Broadly, the koff is the rate constant with which the complex falls apart. The kon is the rate constant with which the complex forms. Usually EC50 stands for the concentration at which the effect is half-maximal. A word on the EC50 (read off the curve): it is the midpoint of the concentration-response curve. For the molecule B1, the dissociation constant (Kd) in [1] is 0.369 nM; in test [2], 0.906 nM; in test [3], 0.208 nM; in test [7], 0.208 nM. In addition, the off-rate (koff) stood at 0.000107 s⁻¹ in test [1], 0.000228 s⁻¹ in test [2], 0.000148 s⁻¹ in test [3] and 0.000148 s⁻¹ in test [7]. For the same molecule, the kon in test [1] turned out to be 291000 M⁻¹ s⁻¹; in test [2], 251000 M⁻¹ s⁻¹; in test [3] it was 709000 M⁻¹ s⁻¹; in test [7], 709000 M⁻¹ s⁻¹. In addition, the “IC50 (read off the curve)” value in [4] was around 0.7 nM; in test [8], around 0.8 nM; in test [9] it was around 1 nM. The results for the concentration giving a half-maximal response (EC50) in test [5] and in test [6] were 3.25 nM and 0.01 nM, respectively. The 50% effective concentration (EC50 (read off the curve)) was around 0.04 nM in test [10] and around 0.1 nM in test [11].
